B1: Interleukin-1 receptor-associated kinase 4 (Homo sapiens), Q9NWZ3 (parent)
chain: MNKPITPSTYVRCLNVGLIRKLSDFIDPQEGWKKLAVAIKKPSGDDRYNQFHIRRFEALLQTGKSPTSELLFDWGTTNCTVGDLVDLLIQNEFFAPASLLLPDAVPKTANTLPSKEAITVQQKQMPFCDKDRTLMTPVQNLEQSYMPPDSSSPENKSLEVSDTRFHSFSFYELKNVTNNFDERPISVGGNKMGEGGFGVVYKGYVNNTTVAVKKLAAMVDITTEELKQQFDQEIKVMAKCQHENLVELLGFSSDGDDLCLVYVYMPNGSLLDRLSCLDGTPPLSWHMRCKIAQGAANGINFLHENHHIHRDIKSANILLDEAFTAKISDFGLARASEKFAQTVMTSRIVGTTAYMAPEALRGEITPKSDIYSFGVVLLEIITGLPAVDEHREPQLLLDIKEEIEDEEKTIEDYIDKKMNDADSTSVEAMYSVASQCLHEKKNKRPDIKKVQQLLQEMTAS

Variants of: B1
Conditions: with MYD88, Q99836-1
MYD88, Q99836-1, sequence (Q99836 whole entry): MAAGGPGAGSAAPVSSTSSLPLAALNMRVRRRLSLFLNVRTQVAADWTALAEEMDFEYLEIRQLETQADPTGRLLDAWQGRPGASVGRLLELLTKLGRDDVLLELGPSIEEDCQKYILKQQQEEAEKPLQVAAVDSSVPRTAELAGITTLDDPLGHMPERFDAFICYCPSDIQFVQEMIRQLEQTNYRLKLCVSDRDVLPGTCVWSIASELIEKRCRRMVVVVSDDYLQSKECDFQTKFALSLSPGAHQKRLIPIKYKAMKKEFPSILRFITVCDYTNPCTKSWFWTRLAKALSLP

Variant	effect of a mutation on the interaction
MNKPITPSTYVRCLNVGLIWKLSDFIDPQEGWKKLAVAIKKPSGDDRYNQFHIRRFEALLQTGKSPTSELLFDWGTTNCTVGDLVDLLIQNEFFAPASLLLPDAVPKTANTLPSKEAITVQQKQMPFCDKDRTLMTPVQNLEQSYMPPDSSSPENKSLEVSDTRFHSFSFYELKNVTNNFDERPISVGGNKMGEGGFGVVYKGYVNNTTVAVKKLAAMVDITTEELKQQFDQEIKVMAKCQHENLVELLGFSSDGDDLCLVYVYMPNGSLLDRLSCLDGTPPLSWHMRCKIAQGAANGINFLHENHHIHRDIKSANILLDEAFTAKISDFGLARASEKFAQTVMTSRIVGTTAYMAPEALRGEITPKSDIYSFGVVLLEIITGLPAVDEHREPQLLLDIKEEIEDEEKTIEDYIDKKMNDADSTSVEAMYSVASQCLHEKKNKRPDIKKVQQLLQEMTAS [R20W]	decreasing interaction strength
MNKPITPSTYVCCLNVGLIRKLSDFIDPQEGWKKLAVAIKKPSGDDRYNQFHIRRFEALLQTGKSPTSELLFDWGTTNCTVGDLVDLLIQNEFFAPASLLLPDAVPKTANTLPSKEAITVQQKQMPFCDKDRTLMTPVQNLEQSYMPPDSSSPENKSLEVSDTRFHSFSFYELKNVTNNFDERPISVGGNKMGEGGFGVVYKGYVNNTTVAVKKLAAMVDITTEELKQQFDQEIKVMAKCQHENLVELLGFSSDGDDLCLVYVYMPNGSLLDRLSCLDGTPPLSWHMRCKIAQGAANGINFLHENHHIHRDIKSANILLDEAFTAKISDFGLARASEKFAQTVMTSRIVGTTAYMAPEALRGEITPKSDIYSFGVVLLEIITGLPAVDEHREPQLLLDIKEEIEDEEKTIEDYIDKKMNDADSTSVEAMYSVASQCLHEKKNKRPDIKKVQQLLQEMTAS [R12C]	decreasing interaction strength

Variants of: B1
Conditions: with MYD88, Q99836-1
Remark: another data set of the same source

Variant	effect of a mutation on the interaction
MNKPITPSTYVCCLNVGLIRKLSDFIDPQEGWKKLAVAIKKPSGDDRYNQFHIRRFEALLQTGKSPTSELLFDWGTTNCTVGDLVDLLIQNEFFAPASLLLPDAVPKTANTLPSKEAITVQQKQMPFCDKDRTLMTPVQNLEQSYMPPDSSSPENKSLEVSDTRFHSFSFYELKNVTNNFDERPISVGGNKMGEGGFGVVYKGYVNNTTVAVKKLAAMVDITTEELKQQFDQEIKVMAKCQHENLVELLGFSSDGDDLCLVYVYMPNGSLLDRLSCLDGTPPLSWHMRCKIAQGAANGINFLHENHHIHRDIKSANILLDEAFTAKISDFGLARASEKFAQTVMTSRIVGTTAYMAPEALRGEITPKSDIYSFGVVLLEIITGLPAVDEHREPQLLLDIKEEIEDEEKTIEDYIDKKMNDADSTSVEAMYSVASQCLHEKKNKRPDIKKVQQLLQEMTAS [R12C]	disrupting interaction strength

Source: IntAct's records for PubMed 24316379
